Source: the supplement of paper PMC7125110
± gives the standard error. For some of these results: Variants at the floor of the assay were thinned out.

B1: glmS ribozyme (parent)
chain: AUAAAAGCGCCAGAACUACAGAAAUGUAGUUGACGAGGAGGAGGUUUAUCGAAUUUUCGGCGGAUGCCUCCAAA

Experiments:
Conditions in all cases: with glucosamine-6-phosphate
glucosamine-6-phosphate [1] = variants of: B1; test: kcat; higher = faster cleavage; RNA array
Summary of the method: (§1)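 Tiles bearing barcoded ribozyme variants, transcribed in situ by E. coli RNA polymerase on sequenced MiSeq chips, were imaged over ~14 h at 37 °C using a hybridised Cy3 probe. Glucosamine-6-phosphate was supplied at 40 μM to 10 mM in HEPES/KCl/Mg(OAc)2 buffer. kobs came from one- or two-exponential decay fits to normalised per-tile medians, and weighted Michaelis–Menten fits then provided kcat and KM.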

glucosamine-6-phosphate [2] = variants of: B1; test: KM; higher = weaker cofactor use; RNA array
Summary of the method: as §1

glucosamine-6-phosphate [3] = variants of: B1; test: self-cleavage kobs at 160 uM GlcN6P; higher = faster cleavage; RNA array
Summary of the method: as §1

glucosamine-6-phosphate [4] = variants of: B1; test: self-cleavage kobs at 640 uM GlcN6P; higher = faster cleavage; RNA array
Summary of the method: as §1

glucosamine-6-phosphate [5] = variants of: B1; test: self-cleavage kobs at 2500 uM GlcN6P; higher = faster cleavage; RNA array
Summary of the method: as §1

glucosamine-6-phosphate [6] = variants of: B1; test: self-cleavage kobs at 10000 uM GlcN6P; higher = faster cleavage; RNA array
Summary of the method: as §1

glucosamine-6-phosphate [7] = variants of: B1; test: self-cleavage kobs at 40 uM GlcN6P; higher = faster cleavage; RNA array
Summary of the method: as §1

Variant	kcat (glucosamine-6-phosphate [1]) [s⁻¹]	KM (glucosamine-6-phosphate [2]) [µM]	self-cleavage kobs at 160 uM GlcN6P (glucosamine-6-phosphate [3]) [s⁻¹]	self-cleavage kobs at 640 uM GlcN6P (glucosamine-6-phosphate [4]) [s⁻¹]	self-cleavage kobs at 2500 uM GlcN6P (glucosamine-6-phosphate [5]) [s⁻¹]	self-cleavage kobs at 10000 uM GlcN6P (glucosamine-6-phosphate [6]) [s⁻¹]	self-cleavage kobs at 40 uM GlcN6P (glucosamine-6-phosphate [7]) [s⁻¹]
AUAAAAGCGCCAGUACUACAGAAAUGUAGUUGACGAGGAGGAGGUUUAUCGGAUUUUCGGCGGAUGCCUCCAAA [A14U A52G]	0.00038 ± 0.0001	2840 ± 1300	5.44e-05 ± 1.7e-05	7.16e-05 ± 1e-05	0.000166 ± 1.6e-05	0.000325 ± 4.4e-05	
AUAAAAGCGCCAGUACUACAGAAAUGUAGUUGACGAGGAGGAGGUUUAUCGUAUUUUCGGCGGAUGCCUCCAAA [A14U A52U]	0.000167 ± 2.7e-06	2930 ± 110		3.02e-05 ± 7.3e-06	7.62e-05 ± 7.8e-06	0.000129 ± 1e-05	
AUAAAAGCGCCAGUACUACAGAAAUGUAGUUGACGAGCAGGAGGUUUAUCGAAUUUUCGGCGGAUGCCUCCAAA [A14U G38C]	< 1e-05			< 1e-05	< 1e-05	< 1e-05	< 1e-05
AUAAAAGCGCCAGUACUACAGAAAUGUAGUUGACGAGGAGGAGGUUUAUCGAAUUUUCGGCGGAUCCCUCCAAA [A14U G66C]	0.000139 ± 1.3e-05	5220 ± 1100			4.36e-05 ± 8e-06	9.18e-05 ± 1e-05	
AUAAAAGCGCCAGUACUACAGAAAUGUAGUUGACGAGGAGGAGGUUUAUCGAAUUUUCGGCGGAUUCCUCCAAA [A14U G66U]	0.000298 ± 3.6e-05	2140 ± 550	4.39e-05 ± 1.8e-05	6.34e-05 ± 1.1e-05	0.000175 ± 2.9e-05	0.000243 ± 2.6e-05	
AUAAAAGCGCCAGUACUACAGAAAUGUAGUUGACGAGGAGGAGGUUUAUCGAAUUUUCAGCGGAUGCCUCCAAA [A14U G59A]	6.06e-05 ± 3.3e-06	9990 ± 1000	< 1e-05			3.03e-05 ± 1.1e-05	< 1e-05
AUAAAAGCGCCAGUACUACAGAAAUGUAGUUGACGAGGAGGAGGUUUUUCGAAUUUUCGGCGGAUGCCUCCAAA [A14U A48U]	0.000103 ± 7.3e-06	9240 ± 1300				5.37e-05 ± 9.7e-06	
AUAAAAGCGCCAGUACUACAGAAAUGUAGUUGACGAGGAGGAGGUUUCUCGAAUUUUCGGCGGAUGCCUCCAAA [A14U A48C]	7.33e-05 ± 4.6e-06	2020 ± 420			3.85e-05 ± 9.5e-06	6.17e-05 ± 9.4e-06	
AUAAAAGCGCCAGUACUACAGAAAUGUAGUUGACGAUGAGGAGGUUUAUCGAAUUUUCGGCGUAUGCCUCCAAA [A14U G37U G63U]	< 1e-05						< 1e-05
AUAAAAGCGCCAGUACUACAGAAAUGUAGUUUACGAGGAGGAGGUUUAUCGAAUUUUCGGCGGAUGCCUCCAAA [A14U G32U]	0.000874 ± 0.00012	3050 ± 730	7.67e-05 ± 1.7e-05	0.000142 ± 1.2e-05	0.000422 ± 4e-05	0.00066 ± 5.2e-05	
AUAAAAGCGCCAGUACUACAGAAAUGUAGUUGACGAGGAGUAGGUUUAUCGAAUUUUCGGCGGAUGCCUCCAAA [A14U G41U]	0.000307 ± 3.4e-05	1010 ± 220	4.48e-05 ± 7.9e-06	0.000109 ± 1.4e-05	0.000292 ± 5.4e-05	0.000271 ± 3.1e-05	
AUAAAAGCGCCAGUACUACAGAAAUGUAGUUGACUAGGAGGAGGUUUAUCGAAUUUUCGGCGGAUGCCUCCAAA [A14U G35U]	< 1e-05		< 1e-05		< 1e-05		
AUAAAAGCGCCAGUACUACAGAAAUGUAAUUGACGAGGAGGAGGUUUAUCGAAUUUUCGGCGGAUGCCUCCAAA [A14U G29A]	0.00088 ± 5.1e-05	3420 ± 290	4.16e-05 ± 1e-05	0.000137 ± 1.7e-05	0.000368 ± 5.1e-05	0.000665 ± 0.00011	
AUAAAAGCGCCAGUACUACAGAAAUGUAGUUGACGAGGGGGAGGUUUAUCGAAUUUUCGGCGGAUGCCUCCAAA [A14U A39G]	0.0158 ± 0.0077		0.000604 ± 0.00015	0.00493 ± 0.0011	0.00644 ± 0.0013	0.0136 ± 0.0025	0.000381 ± 6.3e-05
AUAAAAGCGCCAGUACUACAGAAAUGUAGUUGACGAGGACGAGGUUUAUCGAAUUUUCGGCGGAUGCCUCCAAA [A14U G40C]	0.000633 ± 5.1e-05	1980 ± 320	5.2e-05 ± 9.2e-06	0.000142 ± 1.5e-05	0.000391 ± 4.2e-05	0.000522 ± 3.7e-05	2.05e-05 ± 9e-06
AUAAAAGCGCCAGUACUACAGAAAUGUAGUUGACGAGGAAGAGGUUUAUCGAAUUUUCGGCGGAUGCCUCCAAA [A14U G40A]	0.0018 ± 0.0003	1500 ± 450		0.000643 ± 0.00013		0.00161 ± 0.00021	4.43e-05 ± 1e-05
